Source: patent CN107759691A (HANGZHOU SHANGJIAN BIOTECHNOLOGY CO LTD, dated 2018)

T1: 人AXL蛋白胞外段-人IgG1Fc段融合蛋白 (AXL-Fc) (human, UniProt P30530 26-451)
T1 construct: extracellular domain; Expressed in CHO-K1 cells; also called 靶抗原AXL-Fc; not shown: human IgG1 Fc fragment
T1 sequence (looked up): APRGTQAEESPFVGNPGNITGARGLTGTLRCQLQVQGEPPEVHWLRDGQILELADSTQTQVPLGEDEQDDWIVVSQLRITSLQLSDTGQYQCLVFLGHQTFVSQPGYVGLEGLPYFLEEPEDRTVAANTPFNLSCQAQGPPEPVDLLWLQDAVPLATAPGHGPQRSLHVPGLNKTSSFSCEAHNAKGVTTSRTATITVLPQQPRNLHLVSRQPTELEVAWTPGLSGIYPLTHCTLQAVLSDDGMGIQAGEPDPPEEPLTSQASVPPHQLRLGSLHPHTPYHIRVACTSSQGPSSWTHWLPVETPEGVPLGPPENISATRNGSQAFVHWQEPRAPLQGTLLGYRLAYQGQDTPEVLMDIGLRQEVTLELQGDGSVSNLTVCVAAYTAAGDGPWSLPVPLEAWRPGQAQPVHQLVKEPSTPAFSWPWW

T2: A549细胞表面AXL (UniProt P30530 26-894, limits assumed)
T2 construct: whole, on cells; Endogenous AXL on A549 cells, flow cytometry; also called AXL on A549 cells
T2 sequence (looked up): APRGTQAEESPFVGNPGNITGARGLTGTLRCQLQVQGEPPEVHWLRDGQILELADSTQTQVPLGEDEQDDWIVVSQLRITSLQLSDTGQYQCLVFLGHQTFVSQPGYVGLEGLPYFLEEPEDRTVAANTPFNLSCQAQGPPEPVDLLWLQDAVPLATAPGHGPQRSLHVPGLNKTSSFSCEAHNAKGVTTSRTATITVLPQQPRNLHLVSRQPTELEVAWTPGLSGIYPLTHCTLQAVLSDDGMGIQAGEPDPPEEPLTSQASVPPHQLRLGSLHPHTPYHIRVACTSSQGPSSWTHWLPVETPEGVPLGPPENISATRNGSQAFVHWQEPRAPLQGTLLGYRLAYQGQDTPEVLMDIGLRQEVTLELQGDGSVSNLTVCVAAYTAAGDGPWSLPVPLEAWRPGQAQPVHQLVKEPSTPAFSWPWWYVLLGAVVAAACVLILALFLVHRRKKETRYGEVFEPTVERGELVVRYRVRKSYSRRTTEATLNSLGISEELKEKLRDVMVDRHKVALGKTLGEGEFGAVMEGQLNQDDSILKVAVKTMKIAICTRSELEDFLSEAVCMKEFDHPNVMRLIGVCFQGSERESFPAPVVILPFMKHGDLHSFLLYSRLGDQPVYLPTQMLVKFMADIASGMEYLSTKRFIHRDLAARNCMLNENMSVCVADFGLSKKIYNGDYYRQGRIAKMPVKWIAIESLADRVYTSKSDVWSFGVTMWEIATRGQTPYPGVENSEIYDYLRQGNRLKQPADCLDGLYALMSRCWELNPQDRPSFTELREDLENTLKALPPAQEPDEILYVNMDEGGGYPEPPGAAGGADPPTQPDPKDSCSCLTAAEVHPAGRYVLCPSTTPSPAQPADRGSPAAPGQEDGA

B1: 3D3抗体 (antibody, V domains shown)
VH: EVKLLESGGGLVQPEGSLKLSCVASGFDFRRYWMSWVRQAPGKGLEWIGEINPAGSTINQTPSLKDKFIISRDNAKNTLYLQMSKVRSEDTALYYCVRLSVVFYYYGMDYWGQGTSVTVSS
VL: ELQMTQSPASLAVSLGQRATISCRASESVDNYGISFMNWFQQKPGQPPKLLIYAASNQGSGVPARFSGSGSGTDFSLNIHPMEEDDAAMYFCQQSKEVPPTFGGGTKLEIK
notes: also called 3D3 antibody
B2: C3D3(Chimeric 3D3)抗体 (antibody, human IgG1, kappa, V domains shown)
VH: B1 VH
VL: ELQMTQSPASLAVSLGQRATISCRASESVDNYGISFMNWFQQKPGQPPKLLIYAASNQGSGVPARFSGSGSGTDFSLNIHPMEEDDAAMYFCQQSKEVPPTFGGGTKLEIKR
notes: Copies of 2 follow from the whole IgG format, not from a printed number; also called C3D3 antibody

How the values were obtained:
[1] = biological target: T1, 人AXL蛋白胞外段-人IgG1Fc段融合蛋白 (AXL-Fc); experiment: ELISA, AXL-Fc coated at 1μg/ml, antibody titrated, OD450
BSA(BOVOGEN) = biological target: T3, BSA(BOVOGEN) (UniProt P02769 25-607); experiment: ELISA, protein coated at 1μg/ml, C3D3 detected with HRP goat anti-human IgG
T3 construct: Control coating
T3 sequence (P02769 25-607 limits assumed): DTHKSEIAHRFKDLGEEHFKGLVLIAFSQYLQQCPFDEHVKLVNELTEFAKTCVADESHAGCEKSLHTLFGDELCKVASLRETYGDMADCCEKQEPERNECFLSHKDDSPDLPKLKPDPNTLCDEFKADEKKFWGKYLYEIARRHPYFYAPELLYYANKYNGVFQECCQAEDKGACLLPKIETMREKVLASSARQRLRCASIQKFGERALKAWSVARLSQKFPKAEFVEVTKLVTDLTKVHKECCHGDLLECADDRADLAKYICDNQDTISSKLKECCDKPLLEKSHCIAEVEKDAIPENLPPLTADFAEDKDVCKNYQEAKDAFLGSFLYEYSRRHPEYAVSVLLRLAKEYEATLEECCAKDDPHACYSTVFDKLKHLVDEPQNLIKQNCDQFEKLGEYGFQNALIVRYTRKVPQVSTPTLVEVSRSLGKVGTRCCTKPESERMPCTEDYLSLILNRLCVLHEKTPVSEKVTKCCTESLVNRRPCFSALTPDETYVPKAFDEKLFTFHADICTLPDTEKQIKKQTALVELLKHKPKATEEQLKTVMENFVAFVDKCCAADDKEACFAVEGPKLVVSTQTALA

A549细胞表面AXL = biological target: T2, A549细胞表面AXL; experiment: flow cytometry on A549 cells, C3D3 diluted to 20μg/ml and mixed with an equal volume of cells, PE mouse anti-human IgG

Binder	binding result [1]	binding result (BSA(BOVOGEN))	binding result (A549细胞表面AXL)
B1	binds	–	–
B2	binds	no binding	binds
